Experimental data reported in US8465945B2, “Method for production and use of mite group 1 proteins” (Merck Patent GmbH, priority 1999, dated 2013).

Legend:
[1] = test system: anti-Der f 1 MAb 6A8 (capture) and anti-Der f 1 MAb 4C1 (detection); assay: Monoclonal Capture ELISA; assay type: binding
Procedure: Assays were carried out as follows. A microtiter plate as described in Example 5 was coated overnight at 4° C. with 100 ng/well of anti-Der f 1 protein monoclonal antibody 6A8, denoted herein as anti-Der f 1 MAb 6A8, provided by Dr. Martin Chapman. The plate was washed in the manner described above. The following proteins were then added to wells, having been diluted in Assay Buffer in a 2-fold dilution series, from 0.75 to 50 ng/well: Heska native Derf1, P. pastoris-expressed PDerf1303b, and E. coli-expressed PDerf1303c. After incubation for 1 hour at room temperature, plates were washed as described in Example 5. Then 100 μl per well of a 1:1000 dilution in Assay Buffer of biotinylated anti-Der f 1 monoclonal antibody 4C1, also denoted anti-Der f 1 MAb 4C1, provided by Dr. Martin Chapman, was added for 1 hour at room temperature. Plates were washed, streptavidin-HRP conjugate was added, and plates were developed as described in Example 5.

[2] = Cysteine protease activity, cleavage of quenched fluorogenic substrate; assay type: biochemical; conditions: for Emission (w/o E-64): 50 μM substrate, 2 hours, excitation 380 nm, emission 460 nm; for Emission (w/E-64): pre-incubated 30 minutes with E-64 1 μg/ml
Procedure: Native Der f 1 is believed to be a cysteine protease, based on homology to papain; see, for example, Chua et al, 1992, J Exp Med 167, 175-182. The Der f 1 protein secreted as a mature form by recombinant cell P. pastoris HCY215 (i.e., P. pastoris strain X33 transformed with plasmid pBC128 containing nucleic acid molecule nDerf1909b (coding strand of SEQ ID NO:28) which encodes the pro-form of Der f 1 (amino acid sequence SEQ ID NO:29)) was tested for cysteine protease activity in the following manner. Three concentrations of protein were tested for their abilities to cleave an artificial substrate in the presence or absence of a cysteine protease inhibitor. Specifically, three pairs of samples containing 0.56 μg, 1.1 μg, or 5.6 μg of P. pastoris-expressed Der f 1 protein, respectively, were incubated for 30 minutes at room temperature in 20 μl of 50 mM Tris-HCl, pH 8. One member of each pair also contained the irreversible cysteine protease inhibitor E-64 at a concentration of 1 μg/ml. After the pre-incubation, 100 μl of 50 μM quenched fluorogenic substrate z-Val-Leu-Arg-AMC (available from Enzyme Systems Products, Livermore, Calif.) was added to all six samples, and the samples were incubated for 2 hours at room temperature. Fluorescence was measured using a Perkin Elmer Luminescence Spectrometer (model #LS50B) at an excitation wavelength of 380nm and an emission wavelength of 460 nm.

[3] = test system: IgE from mite-allergic or normal human sera; assay: ELISA, binding of IgE from human sera to coated Der f 1 proteins or mite extracts, detected with FcεR1α-biotin

B1: PDerf1303b: Recombinant Der f 1 expressed by P. pastoris HCY215 from nDerf1909b (pro-form, SEQ ID NO:29); actually secreted as mature form (protein, listed as Dermatophagoides farinae)
chain: RPASIKTFEEFKKAFNKNYATVEEEEVARKNFLESLKYVEANKGAINHLSDLSLDEFKNRYLMSAEAFEQLKTQFDLNAETSACRINSVNVPSELDLRSLRTVTPIRMQGGCGSCWAFSGVAATESAYLAYRNTSLDLSEQELVDCASQHGCHGDTIPRGIEYIQQNGVVEERSYPYVAREQRCRRPNSQHYGISNYCQIYPPDVKQIREALTQTHTAIAVIIGIKDLRAFQHYDGRTIIQHDNGYQPNYHAVNIVGYGSTQGDDYWIVRNSWDTTWGDSGYGYFQAGNNLMMIEQYPYVVIM
OD, protein captured by MAb 6A8 and detected by MAb 4C1 ([1]; 0.75 ng protein per well): 405 OD
OD, protein captured by MAb 6A8 and detected by MAb 4C1 ([1]; 1.5 ng protein per well): 916 OD
OD, protein captured by MAb 6A8 and detected by MAb 4C1 ([1]; 2.5 ng protein per well): 2088 OD
OD, protein captured by MAb 6A8 and detected by MAb 4C1 ([1]; 3.1 ng protein per well): 1544 OD
OD, protein captured by MAb 6A8 and detected by MAb 4C1 ([1]; 6.25 ng protein per well): 1961 OD
OD, protein captured by MAb 6A8 and detected by MAb 4C1 ([1]; 25 ng protein per well): 2156 OD
OD, protein captured by MAb 6A8 and detected by MAb 4C1 ([1]; 50 ng protein per well): 2148 OD
Emission (w/o E-64) ([2]; 0.56 micrograms rDer f 1): 0.861
Emission (w/E-64) ([2]; 0.56 micrograms rDer f 1): 0.302
Emission (w/o E-64) ([2]; 1.1 micrograms rDer f 1): 1.693
Emission (w/E-64) ([2]; 1.1 micrograms rDer f 1): 0.765
Emission (w/o E-64) ([2]; 5.6 micrograms rDer f 1): 9.671
Emission (w/E-64) ([2]; 5.6 micrograms rDer f 1): 2.369
cysteine protease activity ([2]; can be inhibited by pre-incubation with E-64): exhibits cysteine protease activity
OD, bound IgE ([3]; Assay Number 1, serum human 1916): 11 OD multiplied by 1000
OD, bound IgE ([3]; Assay Number 1, serum human3848): 1192 OD multiplied by 1000
OD, bound IgE ([3]; Assay Number 1, serum human 3958): 2244 OD multiplied by 1000
OD, bound IgE ([3]; Assay Number 1, serum human 3960): 646 OD multiplied by 1000
OD, bound IgE ([3]; Assay Number 1, serum human 3961): 433 OD multiplied by 1000
OD, bound IgE ([3]; Assay Number 1, serum human 3987): 1377 OD multiplied by 1000
OD, bound IgE ([3]; Assay Number 1, serum human 4289): 182 OD multiplied by 1000
OD, bound IgE ([3]; Assay Number 1, serum human 4467): 694 OD multiplied by 1000
OD, bound IgE ([3]; Assay Number 1, serum human 5207): 2153 OD multiplied by 1000
OD, bound IgE ([3]; Assay Number 1, serum human pool): 1547 OD multiplied by 1000
OD, bound IgE ([3]; Assay Number 2, serum Heska human B): 2 OD multiplied by 1000
OD, bound IgE ([3]; Assay Number 2, serum Heska human C): 4 OD multiplied by 1000
OD, bound IgE ([3]; Assay Number 2, serum Heska human D): 0 OD multiplied by 1000
OD, bound IgE ([3]; Assay Number 2, serum Heska human E): 1 OD multiplied by 1000
OD, bound IgE ([3]; Assay Number 2, serum Heska human F): 0 OD multiplied by 1000
OD, bound IgE ([3]; Assay Number 2, serum Heska human G): 0 OD multiplied by 1000
OD, bound IgE ([3]; Assay Number 2, serum Heska human H): 0 OD multiplied by 1000
OD, bound IgE ([3]; Assay Number 2, serum Heska human I): 4 OD multiplied by 1000
OD, bound IgE ([3]; Assay Number 2, serum Heska human J): 0 OD multiplied by 1000
OD, bound IgE ([3]; Assay Number 2, serum Heska human K): 0 OD multiplied by 1000
OD, bound IgE ([3]; Assay Number 2, serum Heska human L): 0 OD multiplied by 1000
OD, bound IgE ([3]; Assay Number 2, serum Heska human M): 0 OD multiplied by 1000
OD, bound IgE ([3]; Assay Number 2, serum Heska human N): 370 OD multiplied by 1000
OD, bound IgE ([3]; Assay Number 2, serum Heska human O): 0 OD multiplied by 1000
OD, bound IgE ([3]; Assay Number 2, serum Heska human P): 0 OD multiplied by 1000
OD, bound IgE ([3]; Assay Number 2, serum Heska human Q): 0 OD multiplied by 1000
OD, bound IgE ([3]; Assay Number 2, serum Heska human R): 0 OD multiplied by 1000
OD, bound IgE ([3]; Assay Number 2, serum human 1916): 15 OD multiplied by 1000
OD, bound IgE ([3]; Assay Number 2, serum human 3848): 904 OD multiplied by 1000
OD, bound IgE ([3]; Assay Number 2, serum human 3958): 2369 OD multiplied by 1000
OD, bound IgE ([3]; Assay Number 2, serum human 3960): 1046 OD multiplied by 1000
OD, bound IgE ([3]; Assay Number 2, serum human 3961): 709 OD multiplied by 1000
OD, bound IgE ([3]; Assay Number 2, serum human 3987): 2457 OD multiplied by 1000
OD, bound IgE ([3]; Assay Number 2, serum human 4289): 160 OD multiplied by 1000
OD, bound IgE ([3]; Assay Number 2, serum human 4467): 660 OD multiplied by 1000
OD, bound IgE ([3]; Assay Number 2, serum human 5207): 1304 OD multiplied by 1000
OD, bound IgE ([3]; Assay Number 2, serum human pool): 1551 OD multiplied by 1000
reactivity: share of human serum samples reactive to native Der f 1 proteins that are also reactive to the recombinant protein ([3]; Table 1, 9 human samples (8 sera and pool), OD numbers greater than 100 positive): 100%
reactivity: share of human serum samples reactive to native Der f 1 proteins that are also reactive to the recombinant protein ([3]; Table 2, 10 human serum samples): 100%
OD, bound IgE ([3]; Table 3, sera 429, PDerf1303b preparation number A166-26, PDerf1223b preparation 1000-7): 104 OD multiplied by 1000
OD, bound IgE ([3]; Table 3, sera 1916, PDerf1303b preparation number A166-26, PDerf1223b preparation 1000-7): 0 OD multiplied by 1000
OD, bound IgE ([3]; Table 3, sera 3848, PDerf1303b preparation number A166-26, PDerf1223b preparation 1000-7): 457 OD multiplied by 1000
OD, bound IgE ([3]; Table 3, sera 3958, PDerf1303b preparation number A166-26, PDerf1223b preparation 1000-7): 2616 OD multiplied by 1000
OD, bound IgE ([3]; Table 3, sera 3960, PDerf1303b preparation number A166-26, PDerf1223b preparation 1000-7): 1420 OD multiplied by 1000
OD, bound IgE ([3]; Table 3, sera 3961, PDerf1303b preparation number A166-26, PDerf1223b preparation 1000-7): 744 OD multiplied by 1000
OD, bound IgE ([3]; Table 3, sera 3987, PDerf1303b preparation number A166-26, PDerf1223b preparation 1000-7): 2588 OD multiplied by 1000
OD, bound IgE ([3]; Table 3, sera 4467, PDerf1303b preparation number A166-26, PDerf1223b preparation 1000-7): 780 OD multiplied by 1000
OD, bound IgE ([3]; Table 3, sera 5207, PDerf1303b preparation number A166-26, PDerf1223b preparation 1000-7): 1887 OD multiplied by 1000
OD, bound IgE ([3]; Table 3, sera human pool, PDerf1303b preparation number A166-26, PDerf1223b preparation 1000-7): 1226 OD multiplied by 1000
OD, bound IgE ([3]; Table 6, pool of sera from 16 mite-allergic human patients, 6.2 ng protein per well): 53 OD
OD, bound IgE ([3]; Table 6, pool of sera from 16 mite-allergic human patients, 12.5 ng protein per well): 178 OD
OD, bound IgE ([3]; Table 6, pool of sera from 16 mite-allergic human patients, 25 ng protein per well): 240 OD
OD, bound IgE ([3]; Table 6, pool of sera from 16 mite-allergic human patients, 50 ng protein per well): 293 OD
OD, bound IgE ([3]; Table 6, pool of sera from 16 mite-allergic human patients, 100 ng protein per well): 354 OD
OD, bound IgE ([3]; Table 6, pool of sera from 16 mite-allergic human patients, 200 ng protein per well): 484 OD
